Data as given in publication PMC6394990, “Detailed characterization of the solution kinetics and thermodynamics of biotin, biocytin and HABA binding to avidin and streptavidin” (PLoS ONE, 2019).
Values joined by “and” are separate entries in the source; they are usually repeats but may differ in a detail not shown here. Equal entries are not always repeated. Where two headings read alike, the source gives them in different places. Values belong to the compound of their own block, whether it stands above or below them.

Tests used:
avidin (AV) [1] = molecular target: T1, avidin (AV) (Gallus gallus, UniProt P02701); conditions: cited from earlier work; for Off rate constants, rate / Off rate constants, ln k: AV; for Off rate constants, rate: in s^-1 (unit assumed); for Off rate constants, ln k: the values are: ln koff
T1 construct: purchased Calbiochem (La Jolla, CA)

[2] = set-up: method as in PMID 10796986; conditions: cited from earlier work
avidin (AV) [3] = molecular target: T1, avidin (AV); test: Literature calorimetry reaction thermodynamics; assay type: binding; conditions: line without author below the literature lines (average)
avidin (AV) [4] = molecular target: T1, avidin (AV); test: Literature kinetics, affinity and dissociation (backward) activation parameters; assay type: binding
avidin (AV) [5] = molecular target: T1, avidin (AV); conditions: cited from earlier work
avidin (AV) [6] = molecular target: T1, avidin (AV); test: Stopped-flow association kinetics of dye-labeled biotin probes binding to avidin (F(t), rF(t); Arrhenius plots/global fitting); set-up: ln(k) / dS+ / dG+ / Eon for BFl / b of the line y = m1x+b1: unit not given here; conditions: forward step from Initial 0, probe not given
Procedure: (§1) These reactions were carried out in a buffered solution of 10 mM Tris-HCl, 100 mM KCl, 2.5 mM MgCl2 and 1 mM CaCl2 at pH 8 and only AV-BcO reactions included pH 9 and 10. The concentrations, after mixing, were of 20 nM of dye-labeled B7 probe and 260 nM, 520 nM or 1040 nM of AV; and 200 nM, 300 nM, 400 nM or 800 nM of SAV at temperatures of 10, 15, 20 and 25°C. The deglycosylation of AV (for comparative association reactions) was carried out using the provided standard protocol with endoglycosidase H [47], both with and without incubation of a denaturant solution (2% SDS and 1M 2-mercaptoethanol).
The reactions were collected with the SF instrument, described previously. The fluorescence signal was collected through a 520 nm interference filter (Oriel Corp., Stratford, CT) with a detector time constant and SF dead time of 1 μs and 1 ms, respectively. The excitation light was provided by the Coherent Ar^+ ion laser (described above) at 488 nm with […] of incident power on the reaction cuvette. The laser source was followed by the photo-elastic modulator described above with the axis oriented 45^o with respect to the electric vector of the incident light and with the half-wave modulation (50 kHz) set for 488 nm excitation. The demodulation circuitry following the photomultiplier provided a DC(t) and a rectified AC(t) which were converted to digital data by a high-speed digitizer (PCI-5122) from National Instruments (Austin, TX) with 14-bit resolution and 100 MHz bandwidth, through channels 0 and 1. The data acquisition was controlled by LabVIEW (Vr 8) software at a collection rate of 6120 data points/second and stored in spreadsheets. The AC(t) and DC(t) data were baseline corrected before obtaining the signal ratio (Eq 4) as a function of time (ρt).
(§2) The constant AGain is the instrumental amplitude gain and was evaluated by solving ρ(t) using the known steady state anisotropy (rss) of the complexes which is equivalent to the r(t) at t = ∞; and H, obtained from the equivalent grating factor (G) for the filters and photo multiplier tubes in the SF. For the probes used in here G was 0.82 and H = (1-G)/(1+G) = 0.099. Knowing Again and H, the AC(t) and DC(t) signals can be solved for r(t) and F(t) (Eqs 4 and 5) and the normalized fluorescence, F¯(t) , and corrected fluorescence anisotropy, rF¯(t), were obtained when F¯(0) and rF¯(0) were scaled to 1 at t = 0.
(§3) The F¯(t) (Eq 6) is equivalent to (I||) + 2 (I⊥) and proportional to quantum yield (QYi), molar absorptivity (εi) and to the formation or disappearance of the emitting species Xi(t); and rF¯(t) including the steady state anisotropies (rss) of each fluorescent species (Eq 7).
(§4) The possible reaction models were discriminated by the squared residuals of the observed and calculated association traces of both fluorescence and anisotropy fluorescence signals, F¯(t) and rF¯(t) , respectively.

streptavidin (SAV) [7] = molecular target: T2, streptavidin (SAV) (Streptomyces avidinii, UniProt P22629); conditions: cited from earlier work
T2 construct: purchased Sigma Aldrich (St. Louis, MO)

streptavidin (SAV) [8] = molecular target: T2, streptavidin (SAV); test: Stopped-flow association kinetics of dye-labeled biotin probes binding to streptavidin (F(t), rF(t); Arrhenius plots/global fitting); conditions: forward step from Initial 0, probe not given
Procedure: as §1, with “The concentrations, after mixing, were of 20 nM of dye-labeled B7 probe and 260 nM, 520 nM or 1040 nM of AV; and 200 nM, 300 nM, 400 nM or 800 nM of SAV at temperatures of 10, 15, 20 and 25°C.” left out
The reactions were collected with the SF instrument, described previously. […] The AC(t) and DC(t) data were baseline corrected before obtaining the signal ratio (Eq 4) as a function of time (ρt).
as §2, §3, §4

streptavidin (SAV) [9] = molecular target: T2, streptavidin (SAV); test: Literature calorimetry reaction thermodynamics; assay type: binding
streptavidin (SAV) [10] = molecular target: T2, streptavidin (SAV); test: Literature kinetics, affinity and dissociation (backward) activation parameters; assay type: binding
streptavidin (SAV) [11] = molecular target: T2, streptavidin (SAV); conditions: cited from earlier work; for Off rate constants, rate / Ea from off rate constants: SAV; for Off rate constants, rate: ligand not given, ref klumb paper; for ln(frac bound): rate off SAV
[12] = free biotin, 43 C, read from a literature plot
[13] = free biotin, 55 C, read from a literature plot
[14] = free biotin, 66 C, read from a literature plot
[15] = Enthalpy block, from literature off rates, ref not given
[16] = ligand not given (biotin binding), ref Helppolainen
[17] = line without author below the literature lines
[18] = Enthalpy block, literature value, ref not given
[19] = Gibbs block, literature value, ref not given
[20] = entropy block, literature value, ref not given
[21] = ligand not given (biotin binding), first Green line, ref Green
[22] = ligand not given (biotin binding), ref Suurkuusk
[23] = ligand not given (biotin binding), second Green line, ref Green
[24] = ligand not given (biotin binding), ref Green
[25] = ligand not given (biotin binding), ref Hyre
[26] = ligand not given (biotin binding), ref Klumb
[27] = ligand not given (biotin binding), ref Weber
[28] = line without author below the literature lines (average)

T1 sequence (P02701 25-152): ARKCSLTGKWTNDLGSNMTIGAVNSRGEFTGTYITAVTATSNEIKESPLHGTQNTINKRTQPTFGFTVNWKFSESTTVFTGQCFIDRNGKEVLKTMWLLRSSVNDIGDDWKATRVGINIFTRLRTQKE

Compound: O=C(O)CCCC[C@@H]1SC[C@@H]2NC(=O)N[C@@H]21 [free biotin]
Off rate constants, rate (avidin (AV) [1]; [12]): 5.623e-6
Off rate constants, ln k (avidin (AV) [1]; [12]): -12.1
Off rate constants, rate (avidin (AV) [1]; [13]): 6.31e-5
Off rate constants, ln k (avidin (AV) [1]; [13]): -9.67
Off rate constants, rate (avidin (AV) [1]; [14]): 0.0005623
Off rate constants, ln k (avidin (AV) [1]; [14]): -7.48

dH (avidin (AV) [3]): -21.9 kcal/mol
dSǂ from off rate constants, from transition state teory (avidin (AV) [4]; AV): 31.8 cal/(mol·K)
TdS* (avidin (AV) [4]; AV, at 25C): 1.28E+04
dG* (avidin (AV) [4]; AV, at 25C, from off rates of rhiziavidin-helponainen-2007): 2.47E+04
dS (intercept less ln[RT/Noh), times 1.987) (avidin (AV) [4]; AV, from off rate constants): 43 cal/(mol·K)
slope intersept, ln A (avidin (AV) [4]; AV, from off rate constants of rhiziavidin-helponainen-2007): 45.4
sum (Enthalpy: Eon for BFl and dH) (avidin (AV) [4]; Enthalpy block): 37.6
sum (Gibbs: dG+ and dG) (avidin (AV) [4]; Gibbs block): 25.4
sum (entropy: dS+ and dS) (avidin (AV) [4]; entropy block): 41.7
Ea from off rate constants (avidin (AV) [4]; for AV, from off rates of rhiziavidin-helponainen-2007): 37.5 kcal/mol
Eaoff (avidin (AV) [4]; [17]): 35.6
dH + Ea (avidin (AV) [4]; [17]): 36.5
dG+ (avidin (AV) [6]; Gibbs block): 4.7
dS+ (avidin (AV) [6]; entropy block): 32.8
Compound: AV: avidin, homo-tetrameric biotin-binding protein, CAS 1405-69-2
Off rate constants, ln k (avidin (AV) [1]; 43 C, ligand not given, ref rhiziavidin paper): -14.3
Off rate constants, ln k (avidin (AV) [1]; 55 C, ligand not given, ref rhiziavidin paper): -12.2
Off rate constants, ln k (avidin (AV) [1]; 66 C, ligand not given, ref rhiziavidin paper): -10
Off rate constants, ln k (avidin (AV) [1]; 68 C, ligand not given, ref rhiziavidin paper): -10.1
Eoff (ave) (avidin (AV) [1]; [15]): 37.6
Eaoff (avidin (AV) [1]; [16]): 35.6
thermal stability with bound B7 [2]: 117 °C and 112 °C
thermal stability without bound B7 [2]: 84 °C
dH (avidin (AV) [5]; [18]): -23.2
dG (avidin (AV) [5]; [19]): -20.7
dS (avidin (AV) [5]; [20]): -8.9
TdS (avidin (AV) [5]; [21]): 0 kcal/mol
dG (avidin (AV) [5]; [21]): -20.5 kcal/mol
dS (avidin (AV) [5]; [21]): 0
TdS (avidin (AV) [5]; [22]): -8.9 kcal/mol
dCp (avidin (AV) [5]; [22]): -237
dH (avidin (AV) [5]; [22]): -22.5 kcal/mol
dH (avidin (AV) [5]; ligand not given (biotin binding), ref swamy): -23.4 kcal/mol
TdS (avidin (AV) [5]; [23]): -2.65 kcal/mol
dG (avidin (AV) [5]; [23]): -20.75 kcal/mol
dH (avidin (AV) [5]; [23]): -20.3 kcal/mol
dS (avidin (AV) [5]; [23]): -8.9

Compound: SAV: streptavidin, homo-tetrameric biotin-binding protein, CAS 9013-20-1
dH (streptavidin (SAV) [7]; [18]): -24.8
dG (streptavidin (SAV) [7]; [19]): -18.2
dS (streptavidin (SAV) [7]; [20]): -21
TdS (streptavidin (SAV) [7]; [24]): -6.4
dG (streptavidin (SAV) [7]; [24]): -18.1 kcal/mol
dH (streptavidin (SAV) [7]; [16]): -26.7 kcal/mol
TdS (streptavidin (SAV) [7]; [25]): -13.7
dCp (streptavidin (SAV) [7]; [25]): -345
dG (streptavidin (SAV) [7]; [25]): -18.3 kcal/mol
dH (streptavidin (SAV) [7]; [25]): -24.5 kcal/mol
dS (streptavidin (SAV) [7]; [25]): -45.9
dH (streptavidin (SAV) [7]; [26]): -24.9 kcal/mol
TdS (streptavidin (SAV) [7]; ligand not given (biotin binding), ref Stayton): -21.5
dH (streptavidin (SAV) [7]; [27]): -32 kcal/mol
dH (streptavidin (SAV) [7]; ligand not printed in the sheet (biotin binding), ref Green): -23 kcal/mol
thermal stability with bound B7 [2]: 112 °C and 117 °C
thermal stability without bound B7 [2]: 75 °C
dG+ (streptavidin (SAV) [8]; Gibbs block): 4
dS+ (streptavidin (SAV) [8]; entropy block): 6.7
TdS (streptavidin (SAV) [9]; [17]): -46.0
dH (streptavidin (SAV) [9]; [28]): -24.8 kcal/mol
sum (Enthalpy: Eon for BFl and dH) (streptavidin (SAV) [10]; Enthalpy block): 30.8
sum (Gibbs: dG+ and dG) (streptavidin (SAV) [10]; Gibbs block): 22.2
dSǂ from off rate constants, from transition state teory (streptavidin (SAV) [10]; SAV): 18.8
TdS* (streptavidin (SAV) [10]; SAV, at 25C): 8.94E+03
dG* (streptavidin (SAV) [10]; SAV, at 25C, line names rhiziavidin-helponainen-2007): 2.14E+04
slope intersept, ln A (streptavidin (SAV) [10]; SAV, from literature off rate constants): 38.85
dS (intercept less ln[RT/Noh), times 1.987) (streptavidin (SAV) [10]; SAV, from off rate constants): 30.0
sum (entropy: dS+ and dS) (streptavidin (SAV) [10]; entropy block): 27.7
dH + Ea (streptavidin (SAV) [10]; [17]): 31.8
dS* (streptavidin (SAV) [10]; [17]): 0.0195 kcal/mol
Eaoff (streptavidin (SAV) [10]; [28]): 29.6
Eoff (ave) (streptavidin (SAV) [11]; [15]): 29.4
Off rate constants, rate (streptavidin (SAV) [11]; 20 C): 1.862e-6
Off rate constants, rate (streptavidin (SAV) [11]; 30 C): 9.12e-6
Off rate constants, rate (streptavidin (SAV) [11]; 39 C): 4.467e-5
Ea from off rate constants (streptavidin (SAV) [11]; ref hyre): 30.4 kcal/mol and 30.4 ± 0.2hyre kcal/mol
Ea from off rate constants (streptavidin (SAV) [11]; ref klumb): 29.4 kcal/mol and 29.4 ± 0.4klumb kcal/mol
Ea from off rate constants (streptavidin (SAV) [11]; ref rhiziavidin-helponainen-2007): 29.0 ± 1.0 kcal/mol
Eaoff (streptavidin (SAV) [11]; [16]): 29
TdS* (streptavidin (SAV) [11]; [16]): 7.6 kcal/mol
dH* (streptavidin (SAV) [11]; [16]): 32 kcal/mol
dS* (streptavidin (SAV) [11]; [16]): 0.0257 kcal/mol
Eaoff (streptavidin (SAV) [11]; [25]): 29.4
TdS* (streptavidin (SAV) [11]; [25]): 5.6 kcal/mol
dH* (streptavidin (SAV) [11]; [25]): 30.4 kcal/mol
dS* (streptavidin (SAV) [11]; [25]): 0.0058 kcal/mol
Eaoff (streptavidin (SAV) [11]; [26]): 30.4
dG* (streptavidin (SAV) [11]; [26]): 24.6
dH* (streptavidin (SAV) [11]; [27]): 40 kcal/mol
ln(frac bound) (streptavidin (SAV) [11]; time 13 hr, ref klumb): -0.19
ln(frac bound) (streptavidin (SAV) [11]; time 22 hr, ref klumb): -0.36
ln(frac bound) (streptavidin (SAV) [11]; time 36 hr, ref klumb): -0.47
ln(frac bound) (streptavidin (SAV) [11]; time 47 hr, ref klumb): -0.62
ln(frac bound) (streptavidin (SAV) [11]; time 63 hr, ref klumb): -0.78
